Biological target: T1, purified recombinant ectodomain of human MuSK fused to myc (hMuSKect-myc), wild type (human, UniProt O15146 24-495)
T1 construct: muscle-specific receptor tyrosine kinase (MuSK), human, ectodomain (Ig1, Ig2, Ig3, C6 box, Ig4); It holds the C6 box, since a ΔC6 form was made from it; also called Wt; source: HEK293, transfected with phMUSKect-myc; in lysate for co-IP; not shown: myc, C-terminal, kept
T1 sequence (looked up): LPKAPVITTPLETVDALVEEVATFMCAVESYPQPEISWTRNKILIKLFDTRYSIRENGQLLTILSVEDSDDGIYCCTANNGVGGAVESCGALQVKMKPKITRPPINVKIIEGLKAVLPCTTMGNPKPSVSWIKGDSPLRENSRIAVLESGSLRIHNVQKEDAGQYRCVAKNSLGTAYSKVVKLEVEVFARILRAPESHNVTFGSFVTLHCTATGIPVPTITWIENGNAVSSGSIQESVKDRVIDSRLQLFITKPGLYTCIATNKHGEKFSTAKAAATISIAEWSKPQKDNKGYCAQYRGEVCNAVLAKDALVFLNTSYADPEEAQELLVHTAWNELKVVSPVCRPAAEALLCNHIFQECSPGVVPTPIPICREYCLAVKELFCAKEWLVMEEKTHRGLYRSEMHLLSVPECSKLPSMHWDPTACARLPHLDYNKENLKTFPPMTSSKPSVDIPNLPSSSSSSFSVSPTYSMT
Assay: ELISA; in vitro plate-binding assay: 0.15 ug hMuSKect-myc coated on a Maxi-Sorp plate, blocked with 1% BSA; 0.12 ug hLRP4N-FLAG overlaid with or without 0.24 ug rat neural agrin, room temperature 2 h; bound hLRP4N-FLAG read with anti-FLAG-HRP, normalised to that without agrin
Conditions: both partners purified

B1: N-terminal ectodomain of human LRP4 fused to FLAG (hLRP4N-FLAG) (domain or fragment, UniProt O75096 21-1725, looked up)
chain: SSPECACGRSHFTCAVSALGECTCIPAQWQCDGDNDCGDHSDEDGCILPTCSPLDFHCDNGKCIRRSWVCDGDNDCEDDSDEQDCPPRECEEDEFPCQNGYCIRSLWHCDGDNDCGDNSDEQCDMRKCSDKEFRCSDGSCIAEHWYCDGDTDCKDGSDEENCPSAVPAPPCNLEEFQCAYGRCILDIYHCDGDDDCGDWSDESDCSSHQPCRSGEFMCDSGLCINAGWRCDGDADCDDQSDERNCTTSMCTAEQFRCHSGRCVRLSWRCDGEDDCADNSDEENCENTGSPQCALDQFLCWNGRCIGQRKLCNGVNDCGDNSDESPQQNCRPRTGEENCNVNNGGCAQKCQMVRGAVQCTCHTGYRLTEDGHTCQDVNECAEEGYCSQGCTNSEGAFQCWCETGYELRPDRRSCKALGPEPVLLFANRIDIRQVLPHRSEYTLLLNNLENAIALDFHHRRELVFWSDVTLDRILRANLNGSNVEEVVSTGLESPGGLAVDWVHDKLYWTDSGTSRIEVANLDGAHRKVLLWQNLEKPRAIALHPMEGTIYWTDWGNTPRIEASSMDGSGRRIIADTHLFWPNGLTIDYAGRRMYWVDAKHHVIERANLDGSHRKAVISQGLPHPFAITVFEDSLYWTDWHTKSINSANKFTGKNQEIIRNKLHFPMDIHTLHPQRQPAGKNRCGDNNGGCTHLCLPSGQNYTCACPTGFRKISSHACAQSLDKFLLFARRMDIRRISFDTEDLSDDVIPLADVRSAVALDWDSRDDHVYWTDVSTDTISRAKWDGTGQEVVVDTSLESPAGLAIDWVTNKLYWTDAGTDRIEVANTDGSMRTVLIWENLDRPRDIVVEPMGGYMYWTDWGASPKIERAGMDASGRQVIISSNLTWPNGLAIDYGSQRLYWADAGMKTIEFAGLDGSKRKVLIGSQLPHPFGLTLYGERIYWTDWQTKSIQSADRLTGLDRETLQENLENLMDIHVFHRRRPPVSTPCAMENGGCSHLCLRSPNPSGFSCTCPTGINLLSDGKTCSPGMNSFLIFARRIDIRMVSLDIPYFADVVVPINITMKNTIAIGVDPQEGKVYWSDSTLHRISRANLDGSQHEDIITTGLQTTDGLAVDAIGRKVYWTDTGTNRIEVGNLDGSMRKVLVWQNLDSPRAIVLYHEMGFMYWTDWGENAKLERSGMDGSDRAVLINNNLGWPNGLTVDKASSQLLWADAHTERIEAADLNGANRHTLVSPVQHPYGLTLLDSYIYWTDWQTRSIHRADKGTGSNVILVRSNLPGLMDMQAVDRAQPLGFNKCGSRNGGCSHLCLPRPSGFSCACPTGIQLKGDGKTCDPSPETYLLFSSRGSIRRISLDTSDHTDVHVPVPELNNVISLDYDSVDGKVYYTDVFLDVIRRADLNGSNMETVIGRGLKTTDGLAVDWVARNLYWTDTGRNTIEASRLDGSCRKVLINNSLDEPRAIAVFPRKGYLFWTDWGHIAKIERANLDGSERKVLINTDLGWPNGLTLDYDTRRIYWVDAHLDRIESADLNGKLRQVLVSHVSHPFALTQQDRWIYWTDWQTKSIQRVDKYSGRNKETVLANVEGLMDIIVVSPQRQTGTNACGVNNGGCTHLCFARASDFVCACPDEPDSRPCSLVPGLVPPAPRATGMSEKSPVLPNTPPTTLYSSTTRTRTSLEEVEGRCSERDARLGLCARSNDAVPAAPGEGLHIS
notes: low-density lipoprotein receptor-related protein 4 (LRP4), human, printed as 'the N-terminal ectodomain of human LRP4'; also called hLRP4-FLAG; source: HEK293, transfected with phLRP4N-FLAG; in lysate for co-IP; not shown: FLAG, C-terminal, kept
  fold increase of bound hLRP4N-FLAG with agrin over without agrin: 36 fold

Source: paper PMC4564764, “Collagen Q and anti-MuSK autoantibody competitively suppress agrin/LRP4/MuSK signaling” (Scientific Reports, 2015)
